Residue numbers refer to the chain shown, from its start. Each block holds one molecule with its values, some of them ahead of it.
How the values were obtained:
[1] = target: T1, mouse PTH1R overexpressed on CHO cells (mouse, UniProt P41593 27-591); assay: cell-based or functional assay
T1 sequence (looked up): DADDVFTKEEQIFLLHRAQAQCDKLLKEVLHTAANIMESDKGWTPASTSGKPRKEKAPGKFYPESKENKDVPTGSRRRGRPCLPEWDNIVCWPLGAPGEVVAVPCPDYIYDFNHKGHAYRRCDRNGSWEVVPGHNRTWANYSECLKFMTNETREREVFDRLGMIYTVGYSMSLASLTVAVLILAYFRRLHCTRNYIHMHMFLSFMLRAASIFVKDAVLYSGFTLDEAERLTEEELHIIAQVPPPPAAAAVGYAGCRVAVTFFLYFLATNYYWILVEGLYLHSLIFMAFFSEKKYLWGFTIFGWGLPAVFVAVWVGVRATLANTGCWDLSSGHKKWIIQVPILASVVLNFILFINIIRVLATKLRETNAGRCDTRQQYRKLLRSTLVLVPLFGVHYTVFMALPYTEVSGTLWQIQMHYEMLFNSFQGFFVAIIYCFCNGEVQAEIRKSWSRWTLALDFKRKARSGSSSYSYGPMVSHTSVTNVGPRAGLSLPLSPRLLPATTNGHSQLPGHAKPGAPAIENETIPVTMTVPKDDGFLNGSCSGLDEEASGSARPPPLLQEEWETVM

[2] = target: T2, human PTH1R on Saos-2 cells (endogenous) (human, UniProt Q03431 27-593); assay: cell-based or functional assay
T2 sequence (looked up): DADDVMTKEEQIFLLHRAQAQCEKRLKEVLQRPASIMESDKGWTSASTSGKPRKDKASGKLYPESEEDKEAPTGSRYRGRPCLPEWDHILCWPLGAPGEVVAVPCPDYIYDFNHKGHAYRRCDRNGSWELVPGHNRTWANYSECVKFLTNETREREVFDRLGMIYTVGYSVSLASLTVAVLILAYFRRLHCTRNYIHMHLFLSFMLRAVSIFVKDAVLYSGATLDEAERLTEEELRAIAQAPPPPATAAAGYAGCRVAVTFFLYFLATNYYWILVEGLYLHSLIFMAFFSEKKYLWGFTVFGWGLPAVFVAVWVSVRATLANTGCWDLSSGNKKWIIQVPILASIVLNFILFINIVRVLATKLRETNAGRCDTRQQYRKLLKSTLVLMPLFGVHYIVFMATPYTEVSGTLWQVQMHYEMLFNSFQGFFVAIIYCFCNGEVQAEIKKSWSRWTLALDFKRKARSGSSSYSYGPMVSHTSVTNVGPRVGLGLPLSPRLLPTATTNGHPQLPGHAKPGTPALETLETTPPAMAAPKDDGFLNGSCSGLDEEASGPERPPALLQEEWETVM

[3] = target: T3, human PTH1R overexpressed on CHO cells (human, UniProt Q03431 27-593); assay: cell-based or functional assay
T3 sequence (looked up): T2 sequence (looked up)

[4] = target: T4, rat PTH1R on UMR106 cells (rat, UniProt P25961 27-591); assay: cell-based or functional assay
T4 sequence (looked up): T1 sequence (looked up) with P58S, L497P, I518T, N520T, I523L, T528A

[5] = target: T5, human PTH1R overexpressed on Saos-2 cells (human, UniProt Q03431 27-593); assay: flow cytometry on Saos-2 cells overexpressing human PTH1R, in the presence of 1 uM PTH, PE anti-human IgG
T5 construct: whole, on cells; also called Saos-2 human PTH1R cells
T5 sequence (looked up): T2 sequence (looked up)

[6] = target: T2, human PTH1R on Saos-2 cells (endogenous); assay: cell-based or functional assay; remark: listed apart in the source
[7] = target: T1, mouse PTH1R overexpressed on CHO cells; assay: cell-based or functional assay; remark: listed apart in the source
[8] = target: T3, human PTH1R overexpressed on CHO cells; assay: cell-based or functional assay; remark: listed apart in the source
[9] = target: T2, human PTH1R on Saos-2 cells (endogenous); assay: cell-based or functional assay; remark: listed apart in the source
[10] = target: T4, rat PTH1R on UMR106 cells; assay: cell-based or functional assay; remark: listed apart in the source
[11] = target: T6, recombinant N-terminal extracellular domain of the human PTH1R receptor (human, UniProt Q03431 27-188, limits assumed); assay: SPR, IgG captured, ECD injected
T6 construct: domain: N-terminal extracellular domain; Bought reagent; also called N-ECD PTH1R; PTH1R N-terminal ECD
T6 sequence (looked up): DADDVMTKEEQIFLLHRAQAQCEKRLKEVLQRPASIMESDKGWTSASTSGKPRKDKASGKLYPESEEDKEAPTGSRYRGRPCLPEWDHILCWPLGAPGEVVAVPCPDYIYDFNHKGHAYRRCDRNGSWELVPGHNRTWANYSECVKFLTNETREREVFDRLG
Experimental: An anti-human IgG-Fc CMS sensor chip (GE Healthcare) was prepared using standard amine coupling as described by the manufacturer's protocol for the capture Ab on a BIACORE 4000 system (GE Healthcare). Briefly, the chip surface was activated with a 10 minute injection at 10 μL/minute of a freshly mixed 1:1 solution of 0.1 M N-Hydroxysuccinimide (NHS) and 0.4 M 1-Ethyl-3-(3-dimethylaminopropyl) carbodiimide hydrochloride (EDC). Following the activation injection, 15 ug/mL anti-human IgG-Fc antibody in acetate pH 4.5 was injected at 10 μL/minute for 10 minutes to achieve a high density capture surface. 7 minutes of 1M Ethanolamine hydrochloride-NaOH pH 8.5 was injected to block the surface. The NHS, EDC, and Ethanolamine used were from the BIACORE Amine Coupling Kit.
Kinetic Analysis was performed using HBS-EP+(Teknova) with 2.5 mg/mL BSA (Sigma Aldrich, St. Louis Mo.). Antibodies were diluted to 0.5 μg/mL and captured to achieve a surface density of 100 to 200 RU. […] Injections were performed at 30 μL/minute for 240 seconds with a 360 second dissociation time. Regeneration was then performed with one 60 second injection 3M MgCl.
The data were analyzed using BIACORE 4000 Evaluation Software and was double referenced by subtracting both the blank flow cell data and the averaged bracketing blank injections. The data was fit by simultaneously fitting the an off-rate (kd) and on-rate (kₐ), and calculating the KD as KD=kd/kₐ.

[12] = target: T5, human PTH1R overexpressed on Saos-2 …; assay: flow cytometry on Saos-2 cells overexpressing human PTH1R, in the presence of 3 uM PTHrP, PE anti-human IgG
[13] = target: T7, human PTH2R overexpressed on CHO cells (human, UniProt P49190 25-550); assay: flow cytometry on CHO cells overexpressing human PTH2R, 1 hr at 4 C, APC anti-human IgG
T7 construct: whole, on cells; also called CHO human PTH2R
T7 sequence (P49190 25-550): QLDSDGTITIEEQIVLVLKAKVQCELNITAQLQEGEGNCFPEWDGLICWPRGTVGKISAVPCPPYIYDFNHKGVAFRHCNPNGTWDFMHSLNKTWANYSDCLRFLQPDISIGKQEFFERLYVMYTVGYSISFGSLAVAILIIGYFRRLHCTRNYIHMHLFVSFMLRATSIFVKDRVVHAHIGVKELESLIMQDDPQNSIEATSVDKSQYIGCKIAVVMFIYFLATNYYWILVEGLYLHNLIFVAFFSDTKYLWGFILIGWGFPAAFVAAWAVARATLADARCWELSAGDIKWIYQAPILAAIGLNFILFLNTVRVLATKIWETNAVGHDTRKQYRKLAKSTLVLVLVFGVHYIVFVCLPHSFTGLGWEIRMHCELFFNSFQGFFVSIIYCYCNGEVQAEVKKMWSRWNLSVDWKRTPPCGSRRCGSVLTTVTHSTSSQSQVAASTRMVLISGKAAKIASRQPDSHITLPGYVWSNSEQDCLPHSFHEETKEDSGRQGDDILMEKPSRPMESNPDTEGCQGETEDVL
Experimental: Increasing concentrations of anti-PTH1R antibodies were added to CHO cells overexpressing human PTH2R and incubated for 1 hr at 4° C. (FIG. 8). Cells were washed twice with FACS Buffer and antibody binding was detected with anti-human IgG APC. […] Anti-KLH.G2 was used a negative control for binding.
PTH2R has a 51% homology to PTH1R. […] Following two washes, cells were incubated with Allophycocyanin (APC) AffiniPure F(ab′)₂ Fragment Goat Anti-Human IgG (H+L) (Jackson ImmunoResearch, West Grove, Pa.) for 20 minutes at 4° C. Cells were washed twice and resuspended in FACS Buffer. Samples were acquired using BD Cytometer (BD Biosciences, San Jose, Calif.) and data were analyzed using FlowJo (FlowJo, LLC, Ashland, Oreg.) and Prism (GraphPad Software, La Jolla, Calif.). […] Anti-KLH.G2 was used a negative control for binding.

[14] = target: T5, human PTH1R overexpressed on Saos-2 …; assay: flow cytometry on Saos-2 cells overexpressing human PTH1R, antibody alone, PE anti-human IgG
[15] = target: T4, rat PTH1R on UMR106 cells; assay: flow cytometry, 1 hr at 4 C

Molecule: Human PTH(1-34) (from UniProt P01270 32-65) (peptide)
- EC50 of PTH(1-34), cAMP assay, vehicle only [1]: 0.0306 nM
- EC50 of PTH(1-34), cAMP assay, vehicle only [2]: 0.524 nM
- PTH (1-34) dose response without anti-PTH1R antibody, M-CSF secretion by Saos-2 cells [2]: 1.2 nM
- EC50 of PTH (1-34) induced ERK1/2 phosphorylation without anti-PTH1R antibody [3]: 3.8 nM
- EC50 of PTH(1-34), cAMP assay, vehicle only [3]: 0.0307 nM
- EC50 of PTH(1-34), cAMP assay, vehicle only [4]: 0.647 nM

Molecule: human PTHrP(1-34) (from UniProt P12272 37-70) (peptide)
- EC50 of PTHrP(1-34), cAMP assay, vehicle only [1]: 0.0431 nM
- EC50 of PTHrP(1-34), cAMP assay, vehicle only [4]: 0.333 nM

B1: XPA.85.330 (antibody, V domains shown)
VH: QMQLVQSGAEVKKPGSSVKVSCKASGGTFSSYAISWVRQAPGQGLEWMGGIIPIFGTANYAQKFQGRVTITADESTSTAYMELSSLRSEDTAVYYCARGYVVARLWGQGTLVTVSS
VL: DIVMTQTPLSLSVTPGQPASISCKSSQSLLHIDGNTYLYWYLQRPGQPPQLLIYEISNRFSGVPDRFSGSGSGTDFTLKISRVEAEDVGVYYCMQSLHFPITFGQGTRLEIK
notes: IgG; also called Ab330
- EC50 [5]: 21.7 nM
- EC50 of antibody, neutralization of M-CSF production induced by 12.5 nM PTHrP (1-36) [6]: 1.5 nM
- fold shift of the PTHrP (1-36) dose response, M-CSF secretion by Saos-2 cells, 40 µg/mL antibody [6]: > 200 fold
- IC50, inhibition of PTHrP(1-34)-induced cAMP accumulation [7]: 2.82 nM
- IC50, inhibition of PTH(1-34)-induced cAMP accumulation [8]: 10.6 nM
- IC50, inhibition of PTHrP(1-34)-induced cAMP accumulation [8]: 8.23 nM
- % inhibition of cAMP accumulation at 1 µM PTH(1-34), 267 nM IgG [9]: 85%
- % inhibition of cAMP accumulation at 1 µM PTHrP(1-34), 267 nM IgG [9]: 89%
- % inhibition of cAMP accumulation at 1 µM PTH(1-34), 267 nM IgG [10]: 55%
- % inhibition of cAMP accumulation at 1 µM PTHrP(1-34), 267 nM IgG [10]: 56%
- Kd [11]: 0.19 nM
- koff [11]: 9e-05 s⁻¹
- kon [11]: 470000 M⁻¹ s⁻¹
- EC50 [12]: 193 nM
- binding result [13]: no binding (tested: about 160 nM)
- EC50 [14]: 3.67 nM

B3: XPA.85.344 (antibody, V domains shown)
VH: B1 VH
VL: DVVMTQTPLSLSVTPGQPASFSCKSTQSLLWRDGNTYLYWYLQKPGQSPQLLIYEVSGRFSGVPERFSGSGSGTDFTLEISRVEAEDVGVYYCMQSIHFPLTFGGGTKLEIK
notes: Light-chain-shuffled variant of XPA.85.012
- binding result [15]: binds
- IC50, inhibition of PTHrP(1-34)-induced cAMP accumulation [7]: 3.89 nM
- IC50, inhibition of PTH(1-34)-induced cAMP accumulation [8]: 15.5 nM
- IC50, inhibition of PTHrP(1-34)-induced cAMP accumulation [8]: 15.3 nM
- Kd [11]: 0.18 nM
- koff [11]: 0.00023 s⁻¹
- kon [11]: 1.3e+06 M⁻¹ s⁻¹

B5: XPA.85.334 (antibody, V domains shown)
VH: B1 VH
VL: B1 VL with S22T, N35K, Y41F, R44K, I56V, S70T, Q105P
notes: as for B3
- binding result [15]: binds
- IC50, inhibition of PTHrP(1-34)-induced cAMP accumulation [7]: 3.32 nM
- IC50, inhibition of PTH(1-34)-induced cAMP accumulation (curve does not reach a plateau) [8]: 51.2 nM
- IC50, inhibition of PTHrP(1-34)-induced cAMP accumulation [8]: 12.4 nM
- Kd [11]: 0.25 nM
- koff [11]: 0.00021 s⁻¹
- kon [11]: 860000 M⁻¹ s⁻¹

The next lines start with the values.

- binding result [15]: binds
- IC50, inhibition of PTHrP(1-34)-induced cAMP accumulation [7]: 2.04 nM
- IC50, inhibition of PTH(1-34)-induced cAMP accumulation [8]: 11.4 nM
- IC50, inhibition of PTHrP(1-34)-induced cAMP accumulation [8]: 5.61 nM
- Kd [11]: 0.3 nM
- koff [11]: 0.00054 s⁻¹
- kon [11]: 1.8e+06 M⁻¹ s⁻¹
B2: XPA.85.333 (antibody, V domains shown)
VH: B1 VH
VL: DVVMTQTPLSLSVTPGQPASISCKSSQSLLHIDGKAYLYWYLQKPGQSPHLLIREVSTRFSGVSDRFTGSGSGTDFTLEISRVEAEDVGVYYCMQGLHLPPTFGQGTKVEIK
notes: as for B3

- binding result [15]: binds
- IC50, inhibition of PTHrP(1-34)-induced cAMP accumulation [7]: 3.87 nM
- IC50, inhibition of PTH(1-34)-induced cAMP accumulation [8]: 14.4 nM
- IC50, inhibition of PTHrP(1-34)-induced cAMP accumulation [8]: 17.8 nM
- Kd [11]: 0.42 nM
- koff [11]: 0.00045 s⁻¹
- kon [11]: 1.1e+06 M⁻¹ s⁻¹
B4: XPA.85.343 (antibody, V domains shown)
VH: B1 VH
VL: B1 VL with I2V, N35R, R44K, P45A, I56V, L97I, I101L, Q105G, R108K
notes: as for B3
